Measured values reported in patent publication US20040143859A1 (SANKYO, published 2004).

Biological target: the molecule itself
Assay: SDS-PAGE, reducing (60 KD) against non-reducing (120 KD)
Protocol: The two protein peaks (6 and 7) with OCIF activity were subjected to SDS-polyacrylamide gel electrophoresis under reducing and non-reducing conditions. Briefly, 20 μl of each peak fraction was concentrated under vacuum and dissolved in 1.5 μl of 10 mM Tris-HCl, pH 8, 1 mM EDTA, 2.5% SDS, 0.01% bromophenol blue, and incubated at 37° C. overnight under non-reducing conditions or under reducing conditions (with 5% of 2-mercaptoethanol). Each 1.0 μl of sample was then analyzed by SDS-polyacrylamide gel electrophoresis with a gradient gel of 10-15% acrylamide (Pharmacia Co.) and an electrophoresis-device (Fast System, Pharmacia Co.). The following molecular weight marker proteins were used to calculate molecular weight:phosphorylase b (94 kD), bovine serum albumin (67 kD), ovalbumin (43 kD), carbonic anhydrase (30 kD), trypsin inhibitor (20.0 kD), and lactalbumin (14.4 kD). After electrophoresis, protein bands were visualized by silver stain using Phast Silver Stain Kit.

B1: osteoclastogenesis inhibitory factor (OCIF), natural, purified from conditioned medium of human fibroblast IMR-90 (other)
chain: ETFPPKYLHYDEETSHQLLCDKCPPGTYLKQHCTAKWKTVCAPCPDHYYTDSWHTSDECLYCSPVCKELQYVKQECNRTHNRVCECKEGRYLEIEFCLKHRSCPPGFGVVQAGTPERNTVCKRCPDGFFSNETSSKAPCRKHTNCSVFGLLLTQKGNATHDNICSGNSESTQKCGIDVTLCEEAFFRFAVPTKFTPNWLSVLVDNLPGTKVNAESVERIKRQHSSQEQTFQLLKLWKHQNKDQDIVKKIIQDIDLCENSVQRHIGHANLTFEQLRSLMESLPGKKVGAEDIEKTIKACKPSDQILKLLSLWRIKNGDQDTLKGLMHALKHSKTYHFPKTVTQSLKKTIRFLHSFTMYKLYQKLFLEMIGNQVQSVKISCL
modifications: N-terminus blocked (the filing says the N-terminal residue may be converted to pyroglutamine); N-linked sugar chains
notes: Secreted glycoprotein found as a 60 kD monomer and a 120 kD homodimer; also called nOCIF; natural OCIF
  binding result: binds
